Source: patent publication US20040142381A1, “Methods for designing IGF1 receptor modulators for therapeutics” (priority 2002, published 2004)

What was measured:
[1] = tested on: T1, synthetic peptide KKKSPGEYVNIEFG, based on the IRS-1 phosphorylation site Tyr 895
T1 sequence: KKKSPGEYVNIEFG

[2] = tested on: T2, synthetic peptide substrate KKEEEEYMMMMG
T2 sequence: KKEEEEYMMMMG

[3] = biological target: synthetic peptide substrate …; test: cell-based or functional assay
[4] = substrate: CC[C@H](C)[C@H](NC(=O)[C@H](CC(N)=O)NC(=O)[C@@H](NC(=O)[C@H](Cc1ccc(O)cc1)NC(=O)[C@H](CCC(=O)O)NC(=O)CNC(=O)[C@@H]1CCCN1C(=O)[C@H](CO)NC(=O)[C@H](CCCCN)NC(=O)[C@H](CCCCN)NC(=O)[C@@H](N)CCCCN)C(C)C)C(=O)N[C@@H](CCC(=O)O)C(=O)N[C@@H](Cc1ccccc1)C(=O)NCC(=O)O; test: Km of IRS-1 Tyr 895-derived peptide substrate for IGF1RK; type: biochemical, human; details: other: peptide as substrate of IGF1RK

## IGF1RK (phosphorylation state not stated)
[1]
  Km: The Km for this peptide was determined to be 128 µM for IGF1RK

## IGF1RK, bis-phosphorylated form (2P)
[2]
  Peptide Km: 130 µM

## IGF1RK, mono-phosphorylated form (1P)
[2]
  Peptide Km: 620 µM

## IGF1RK, tris-phosphorylated, activated form (3P)
[2]
  Peptide Km: 120 µM

## IGF1RK, tris-phosphorylated, activated form (3P) (enzyme)
[3]
  Km for peptide ([γ-32P]ATP and phosphocellulose binding assay): 150 µM

## IGF1RK, unphosphorylated form (0P): tyrosine kinase domain of the human insulin-like growth factor 1 receptor, residues 956-1,256
other
  induction time of autophosphorylation at varying enzyme concentration (continuous spectrophotometric assay): the phosphorylation reaction was concentration dependent
[2]
  Peptide Km: 1300 µM

B1: IGF1RK (Homo sapiens) (protein)
chain: VYVPDEWEVAREKITMSRELGQGSFGMVYEGVAKGVVKDEPETRVAIKTVNEAASMRERIEFLNEASVMKEFNCHHVVRLLGVVSQGQPTLVIMELMTRGDLKSYLRSLRPEMENNPVLAPPSLSKMIQMAGEIADGMAYLNANKFVHRDLAARNCMVAEDFTVKIGDFGMTRDIYETDYYRKGGKGLLPVRWMSPESLKDGVFTTYSDVWSFGVVLWEIATLAEQPYQGLSNEQVLRFVMEGGLLDKPDNCPDMLFELMRMCWQYNPKMRPSFLEIISSIKEEMEPGFREVSFYYSEENK
notes: encoding residues 956-1,256 of the human insulin-like growth factor 1 receptor (IGF1RK); made in house; host or cells: Spodoptera frugiperda (Sf9) cells, baculovirus
[4]
  Km: 128 µM
